Results on two molecules are retold here after publication PMC8602290, “G3BP1 inhibits Cul3^SPOP to amplify AR signaling and promote prostate cancer” (Nature Communications, 2021).

The target in assay [1] is T1, Myc-DEK protein (affinity-purified) (UniProt P35659 1-375).
T1 construct: DEK, recombinant Myc-tagged protein
T1 sequence (looked up): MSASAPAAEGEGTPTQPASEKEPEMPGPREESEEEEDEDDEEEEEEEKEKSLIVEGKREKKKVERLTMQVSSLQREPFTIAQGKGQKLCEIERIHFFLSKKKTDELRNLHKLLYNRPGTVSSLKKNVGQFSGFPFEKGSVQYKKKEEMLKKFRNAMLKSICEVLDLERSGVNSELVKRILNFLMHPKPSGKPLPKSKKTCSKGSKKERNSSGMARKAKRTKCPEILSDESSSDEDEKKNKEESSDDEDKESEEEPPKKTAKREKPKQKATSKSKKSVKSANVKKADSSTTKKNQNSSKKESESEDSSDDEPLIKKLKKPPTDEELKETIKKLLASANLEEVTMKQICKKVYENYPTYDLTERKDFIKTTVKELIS
The assay is described as follows: co-IP; in vitro binding assay with affinity-purified proteins: 4 ug His-SPOP with 0.125, 0.25 or 0.75 ug His G3BP1 in 1 ml pulldown buffer, 4 C, 60 min, then 0.56 ug Myc-DEK; IP with anti-SPOP and protein G agarose; wash 50 mM Tris pH 7.5, 200 mM NaCl. Conditions: both partners purified.

The target in assay [2] is T2, His G3BP1 protein (affinity-purified) (UniProt Q13283 1-466).
T2 construct: G3BP1, recombinant His-tagged protein
The assay is described as above. The note with it: both partners purified.

The target in assay [3] is T3, Speckle-type POZ protein (SPOP), endogenous in 22Rv1 cells (human (endogenous in 22Rv1), UniProt O43791 1-374).
T3 construct: SPOP, endogenous protein of human 22Rv1 prostate cancer cells; also called endogenous SPOP; source: endogenous, 22Rv1 lysate or cells
The assay is described as follows: proximity ligation; 22Rv1 cells transfected with FLAG-G3BP1 constructs; Duolink II kit, antibodies against FLAG-M2 and SPOP (endogenous); percentage of cells with signal. Conditions: partners not purified.

B1: His-SPOP protein (affinity-purified) (natural protein, UniProt O43791 1-374, looked up)
chain: MSRVPSPPPPAEMSSGPVAESWCYTQIKVVKFSYMWTINNFSFCREEMGEVIKSSTFSSGANDKLKWCLRVNPKGLDEESKDYLSLYLLLVSCPKSEVRAKFKFSILNAKGEETKAMESQRAYRFVQGKDWGFKKFIRRDFLLDEANGLLPDDKLTLFCEVSVVQDSVNISGQNTMNMVKVPECRLADELGGLWENSRFTDCCLCVAGQEFQAHKAILAARSPVFSAMFEHEMEESKKNRVEINDVEPEVFKEMMCFIYTGKAPNLDKMADDLLAAADKYALERLKVMCEDALCSNLSVENAAEILILADLHSADQLKTQAVDFINYHASDVLETSGWKSMVVSHPHLVAEAYRSLASAQCPFLGPPRKRLKQS
notes: SPOP, recombinant His-tagged protein
For the molecule B1, the binding result in assay [1] and in assay [2] was “binds” in each case.

B2: FLAG-G3BP1^RRM (22Rv1) (domain or fragment, UniProt Q13283 338-466, looked up)
chain: DSHQLFIGNLPHEVDKSELKDFFQSYGNVVELRINSGGKLPNFGFVVFDDSEPVQKVLSNRPIMFRGEVRLNVEEKKTRAAREGDRRDNRLRGPGGPRGGLGGGMRGPPRGGMVQKPGFGVGRGLAPRQ
notes: also called FLAG-RRM; G3BP1^RRM-RGG; source: 22Rv1, transfected, in cells or lysate
In the case of B2, the “percentage of cells with PLA positive signal” value in assay [3] came out at 70%.
